{"source": "the DeepSol protein solubility set"}
{"assay": "soluble on expression in E. coli; label from the status in PepcDB or PDB records"}
{"sequence": "MSLEMTIAYIQENPYRLADEISGIGFKKADQIARAMGISLNSKYRIHSGIKYMLGTFHGEGHTYAPGDILIDRTRELLSVEESEVVEGIQELALKQKIQLERQDEEIIVYSMPYFYAETNTCNKLIELSQVELEPLEIDVDYEIESIEKEDGIALATNQKEAIRQSIENGIIVITGGPGTGKTTIINTLIKVFGKLKKKILLAAPTGRASKRMTEATGKEAKTIHRLLEMGYSDDDDGMLFQRNEENPLPADIIIIDEVSMVDIMLMNSLLKAISVGTRLIFVGDVDQLPSVGAGNVLRDIIDSKIIKVVRLNEIFRQAEESMIVVNAHKINKGEYPILNHKDKDFYFMSRSRSEDILNTIIGLVKERLPKHYKFDPIKDIQVLTPMKKGEVGSINLNKELQNYLNPPDKYKREKELREKVFRVGDKVMQIKNNYTLKWASLDPDTEERQGEGVFNGDMGYIQHINPEAQELTVFFDDNRSVVYTYTQLDELELAYAITIHKSQGSEFPVVVMPVTWGPPMLLTRNLLYTAITRARSLVVLVGTENYLNLMVSNNKIVERYSGLGIRLKKFYNEGHHHHHH", "soluble on expression in E. coli": "soluble"}
{"sequence": "MSLENDSLEITYLGKRYKISLNNTFSDEMKRTLKERFHNQELNALELLKDYLHESCQNEYLHNELQKLLEKISSCSIT", "soluble on expression in E. coli": "not soluble"}
{"sequence": "MSLEQHGNVVSVGLKLYNEILKETITRFKERRIEKKHSVNVEIENPPGRFFIPEDYVQNPVERLRLYRRLASSLDEEDLEEILEEMKDRFGEPPEEVKLLVDYFRLRVRASKLGIKKIRFDHSMVEIFPSRNSPFLNHPRYDRRSGSVVLYTRKDPVEFLMDMLKKEGHHHHHH", "soluble on expression in E. coli": "soluble"}
{"sequence": "MSLEQLLGRGEAAPSVRYDETIQKIIPIIKNSIRLPDDLRDRKTIWEFIRPQLMGIKALEAGFSMALWDWWGQKIGRPIFELLSVKTKMLPQTSYTISIGGFDELGAKLEEAKPYSILKVKLGTPKMDKEIITEIRRHTEKLIRVDANEGWTEDVALEMSFWLADRNIEFIEQPFPAKDLNSSIELKKKSPLEIFADENSLNSNDIKPIRHAFHGINIKLMKCGSLEEGKKMIDVARENGLKVMLGCMVETSVGITSASHLAGEVDFVDLDGNLLIKNDPYSGVLVNNGRLVLQKGNGSGVKLSSDYRNILEEGHHHHHH", "soluble on expression in E. coli": "soluble"}
{"sequence": "MSLEQPGFKLRAVTIHFEASADVDSIEDAVFKAKEAIDRLTAEKGVEVWSLRAVLTPGESVADSLGRVAELEPLVEEEGVFINLGLHNASADDWEAVSGIVESGFFLSFALENGTWEEARSYSKLLHRLADKSPDLAVHIGFNPLGTHILTPYFPLATSPGEQRTVTVALLYPRYLLESFRKGGLQAVIDSMVDAAQLSGEYGKAVAKDVEGSFAGVDLSISPWMEESSLALVEEVGGVRLPEPGFAYGLRLVNEAIAAAASKTGYAVGFNEVQLPVAEDSKLKVRVAELETSARDLLRLSGVCLAGLDMAVIPASLDGVAGLLLEARAYSRAKGSIVGVRLIPLDGVEPGDEVFLKRFGEVPVIPIEGHHHHHH", "soluble on expression in E. coli": "not soluble"}
{"sequence": "MSLERTTHQSLNGSWQFQPVAATLHVTPQLQAPAGGWKKINVPDNWYRQGHDISGYAWYQTRFALDAHNASRVAHLVFHGVDYSADVWLNDRYLGHHTGYFQPFEFDVTGLVKPGENQLRVLVNSPLEQPQDWSLHKRLVKGIFSHHDTRPGGAWSERGQEKNTGGIWAPVELQFADRAAVRQLQVTPRKQATEANPQQWVVSTEADIHHDVSHETSVTVEARILPENFKGASFAFKQSQTLQPGGNHIAFSFPVDNPALWWPYEYGHPNLYRLELSVKDASGKLLDQREQVFGVREVKVDDGLQWFINGRRMFLRGTNYIASQWLAEMTPDRYRRDLEMMQAAHINAVRVHAHVTGQDFYELCDRMGILVTQDFPLLWGYSDDPDFIAEARRQAKDMVQLLQRHPSIISWTMHNEPPWDSPWMAQKYPDYHPDINRRLDALLYEDVSKLDTLRVVRKESATKEHEWMGWYFDHWLAFSRPAPTPWSTEFGAQALPNLKSLERMFSKALLWPDTEAKWQVWEYHNFQRKETFEFAGVKQGGNIEEFIANSQHYQARLIQFAVENYRRQRYAPVSAVFQFMFVENWPSINWGIVDYWREPKAGYEALRVAYQPVLPSLEWKQDEYEAGASPRIGLWAINDTWSGFEHASYTVTLYREGKPLDMLKLPLEMLPDSGYKLRDYALPVLEKGQYEIKAEITGQDGKSMGRNQYRFSVKEGHHHHHH", "soluble on expression in E. coli": "soluble"}
{"sequence": "MSLETETMSQDLMQRGKAIKLAVFDVDGVLTDGRLYFMEDGSEIKTFNTLDGQGIKMLIASGVTTAIISGRKTAIVERRAKSLGIEHLFQGREDKLVVLDKLLAELQLGYEQVAYLGDDLPDLPVIRRVGLGMAVANAASFVREHAHGITRARGGEGAAREFCELILSAQGNLEAAHSVYLEGHHHHHH", "soluble on expression in E. coli": "soluble"}
{"sequence": "MSLFMNPHRRFWMVTGWTKSAIWVARWLLGIRWQCQGWEHIEEAVATNKQVVLLSKHQSAWETIAFVAIMPRPLCYVFKRELLYVPFFGWALGMLKMVHINRKDGTNAFASVARQGKERMADGSWIIMFPEGTRTPVGAPNPRYKSGGARLAVDTGAWVIPIAHNSGRLWPRNAFLKYPGLITLSIGPAISSAGKSGDQLNREVQAWIEAEMRRIDADSYEGHHHHHH", "soluble on expression in E. coli": "not soluble"}
{"sequence": "MSLGDFSELARVNGEPVYVKEYKMKLLSNTTEVINYFSQSYAVETKENFRTDSYSGEAPVEMARKKALDDIVEVKVQQILAKEKGIIESTDYREFLKELENENRQRKDALKSNKVVYGPDNYGEIEYFNYSFDNMVSKLKEKLKENELSIPEEKLESMYNLLKDTRFKLPDDIKIQVISIGFTDEKGIINDDLKSKARVKIEEAKKRIDNGEPFEEVALDYNPKSGVLEYVFTKEKQMAKDISHPELLDEALKLKPGQVSEIIERSTDFVLILCKEKKSTGYLPYKDARKQLLDELIEKDYQEYIDKLVEQADVKINEKLYRRINVNEGHHHHHH", "soluble on expression in E. coli": "soluble"}
{"sequence": "MSLGEDEEKAFIVGTVQAIFFENPSNFYKVVLVNVTDTNTDYLEKEIVVTGSFGQVQEEEPYRFFGHFVDHPRYGRQFQVDSYQQERPTSASGVVNYLSSDKFPGIGKRTAEKIVEVLGESAIDRIIDDPSVLEEVTVLNEKKRQVIVETIRLNHGMEQVIVGLNRYGFGSQLAFSIYQTYQEETLSVIQENPYQLVEDIEGVGFKRADNIAEQIGIQADSAVRIRAAILHEVFEHSIRSGNTYVQADVLLEEAIRTLEASRPVEISPDQVANEIITLVEHGKIQQEETKLFENSLYFSEWGIGTSIQRLLSRKKEIHYEEEEVQKNIRMIEKRLNIQYGDSQQAAIEEAIKSPLFILTGGPGTGKTTVINGIVSLFAELNGLSLDLKDYTQEMFPILLAAPTGRAAKRMNETTGLPASTIHRLLGLTGREKNPSLTAKELEGGLLIVDEMSMVDTWLANTLLKAIPTNMQVIFVGDKDQLPSVGPGQVLHDLLQINEIPKCELNEIYRQGDGSSIIPLAHEIKEGKLPADFQKNQKDRSFFASDIGHIEEYIRQIVTKAKAKGFTPQDIQVLAPMYRGAAGIDALNKMMQEIFNPNDGKKKEVKWNDTVYRIGDKVLQLVNTPELNVFNGDMGEIVGITLAKDSEDKVDELVLQFDNNEVTYKRNEWNKITLSYCCSIHKAQGSEFRMVLLPMVHQYSRMLQRNLLYTAVTRSKELLILLGEVSAFETCVKNESASRMTMLKERIVNAEQEGHHHHHH", "soluble on expression in E. coli": "soluble"}
{"sequence": "MSLGEETSYCFKEKSRGVLREWYAHNPYPSPREKRELAEATGMTTTQVSNWFKNRRQRDRAAEAKERENTENEGHHHHHH", "soluble on expression in E. coli": "soluble"}
{"sequence": "MSLGEVCEIMQAYGGVSIVNALPSWYGSSMAINLKVKVEIREGKRVYSQESELIKTILNYFKEKYSIPDIEVDIESELPQKSGLKSSSAVSVALIAEIAKQYDLRNINPPILSAILSLKAGVSYTGALDDAVASYCGGIAFTYNKMFRIVKLENLEDNLSILILAKGGRQKPVNLNELRKYSHVFEEIFKIALKDYLTAMKMNGILIANILGYSLEPIEIALKKGALAAGISGNGPSYFAVSKNGEEGPIYESLKKFGDVIIVRPVSLDCKDLSIKEGHHHHHH", "soluble on expression in E. coli": "not soluble"}
{"sequence": "MSLGFKEYYRVFPTYTDINSQEYRSRIETLEPLLMKYMKKRGKVLDLACGVGGFSFLLEDYGFEVVGVDISEDMIRKAREYAKSRESNVEFIVGDARKLSFEDKTFDYVIFIDSIVHFEPLELNQVFKEVRRVLKPSGKFIMYFTDLRELLPRLKESLVVGQKYWISKVIPDQEERTVVIEFKSEQDSFRVRFNVWGKTGVELLAKLYFTKEAEEKVGNYSYLTVYNPKEGHHHHHH", "soluble on expression in E. coli": "soluble"}
{"sequence": "MSLGIATFAVVDLETTGNQLDYDEIIQIGITFVRQNQVIDTYHSMIRTDLEIPPFIQALTSIEEEMLVQAPYFNEVADDIYQLIKDCVFVAHNISFDLNFIKKAFEKCNIQFKPKRVMDTLELFKIAFPTDKSYQLSALAESHHIPLNNAHRADEDATTTAKLMIKAFEKFEQLHEGHHHHHH", "soluble on expression in E. coli": "soluble"}
{"sequence": "MSLGIKVVLLEKAHEIGEIGAGIQLGPNAFSALDSLGVGEVARQRAVFTDHITMMDAVNAEEVVCIETGQAFRDHFGGPYAVIHRVDIHASVWEAVLTHPDVEYHTSTNVVDIRETEDDVTVFDDRGNSWTGDILIGCDGVKSVVRQSLLGDAPRVTGHVVYRAVIDRADMPEDLRINAPVLWAGPHCHLVHYPLRGGKQYNLVVTFHSRQQEEWGVKDGSKEEVLSYFEGIHPRPRQMLDKPTSWRRWSTADREPVAKWGTKRITLVGDSAHPVAQYMAQGACMALEDAVTLGKALAQCEGDAAQAFALYESVRIPRTARIVWSTREMGRVYHAAGVERQVRNLLWKGKSQAEFYRGMEWLYGWKEDNCLQPREGHHHHHH", "soluble on expression in E. coli": "not soluble"}
{"sequence": "MSLGKEEEYRITNVKIFKDTPVWELALAVKNEKTRTIEKLAKENPELLNYQEPKYGATLLLWAVGMEKYKSAEALLKCGADPNIASTVDGMTPLYLAAGFSWIDNYAKKDPKFVKLLLKYNADPNITYGGNAIIEPGTSPLMNSIRCGIEKTKALVEAGAYINYKTKSGTTAAIKALLAGQNATLEALEYAHYLIVEKKAKVTDPYYPWLVYEENNIQELYPVDILRRWVYPLDSEEYRIKMEIVEEFARQGVNYWDTEIDKYTLEQIKKLYPDTWEEYIKRYEGHHHHHH", "soluble on expression in E. coli": "soluble"}
{"sequence": "MSLGKIRFGIVGTSNIANIFLRAASRVKDFELVAVYSRNLEKAREFGTLYGASIFFDDLEQMAKSKDIDAVYIASPNALHSKQTITCLKHKKHVLCEKSLASNLKEVKSMIKTAKDNNVLLMEAMRITCVPNFKAVKENLYKIGKIRRFFGSYCQYSSRYDKYKNGIIENAFKKELSNGALMDIGVYCIHPMVNLFGAPKTVKAVSHILQTGVDGEGSAVFQYDDMDAIIQYSKVADSYIPSEIQGEEGSIIIEKLNLFEKAIIKYRDGREEDISIPKEKAEEKPREIEGMYYELVEFISLINNNKIESNINSHENSIIVMEIMDEIRRQSSIVYPADSEGHHHHHH", "soluble on expression in E. coli": "soluble"}
{"sequence": "MSLGKISFPVGVLFSGSGSYAQPARQGFRGAMTAIAHINASRRFPFNLQAHHFDPAGEADRYASLCRQLIRERDVRHVVGCTTSWSRKEAIPVVEKLDALLWYPCVYEGFEVSENLIYVAACANQHLVPLLDYIAPRFGSRAMLVGANYIWGWENNRIARDILHRSGGEVLGERFVSIGDTDIDHLIDEVREKRPDFILNNLIGPSSYAFLRAYQALGEADDRFRPEKCPIISCNLYEGEITGLGHAAAGHFTVSCYFRTLQSPENDSFLKTLAALDPGAIVDAFYAQAFSAVVMIAEAIMRCGSDDADLVRGALRGQSVDTPLGAISVDRWTNHVELPAHIGRARADGSFEIVKREGHHHHHH", "soluble on expression in E. coli": "not soluble"}
